One assay deals with T1, rat CD137 protein (rat, UniProt Q4W8J3 24-189).
T1 construct: Coated on ELISA plates; also called Rodent CD137
T1 sequence: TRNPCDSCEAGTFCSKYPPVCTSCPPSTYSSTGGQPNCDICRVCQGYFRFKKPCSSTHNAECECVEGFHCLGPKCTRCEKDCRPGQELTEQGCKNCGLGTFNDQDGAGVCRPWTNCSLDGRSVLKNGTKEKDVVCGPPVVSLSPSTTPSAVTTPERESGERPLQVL
The assay is described as follows: ELISA, protein coated at 1 µg/mL. How it is done:
(§1) The plate was decanted and washed once; assay diluent was added at 200 μL/well. After a 1-hour incubation at room temperature, the plate was washed with PBST one time. […] These samples were added into the plate 50 μL/well. The plate was incubated 1 hour at room temperature and then washed three times with PBST. Goat anti-human IgG-H+L HRP-conjugated at 1:100,000 dilution or goat anti-mouse IgG (H+L) secondary antibody, HRP, at 1:50,000 dilution was added to the plate at 100 μL/well. The plate was incubated 1 hour at room temperature followed by washing with PBST four times. The TMB substrate solution was added 100 μL/well. The color was permitted to develop for 15 minutes and then 100 μL/well 2N H₂SO₄ was added to terminate the reaction. Absorbance at 450 nm and 620 nm was determined by a Tecan F200 Pro reader.

The target of a further assay is human PD-1 protein (human, UniProt Q15116 25-167). The assay is described as follows: ELISA, protein coated at 1 µg/mL. How it is done:
as §1

The next assay has as its target human VISTA protein (human, UniProt Q9H7M9 33-194). Put plainly: ELISA, protein coated at 1 µg/mL. How it is done:
as §1

The next assay concerns the target human CD27 protein (human, UniProt P26842 21-192, limits assumed). The assay is described as follows: ELISA, protein coated at 1 µg/mL. How it is done: as §1
A further assay concerns the target T2, human LTBR protein (human, UniProt P36941 31-227).
T2 construct: also called LT β R; LTβR
The assay is described as follows: ELISA, protein coated at 1 µg/mL. How it is done: as §1

In assay [1] the target is T3, human FcγRIIIA-Phe158 on CHO-K1 cells (human, UniProt P08637 17-254).
T3 construct: whole, on cells; also called CHO-K1-huFcγRIIIA-Phe158; CHO-huFcγIIIA
Put plainly: flow cytometry on CHO-huFcγRIIIA cells, PE anti-human Fc F(ab')2. The method, then: The plate was mixed and incubated in the dark for 2 hours at 4° C.

For the next assay, the target named is T4, huCD137-C6His (human, UniProt Q07011 24-186).
T4 construct: Immobilised by amine coupling on the sensor chip; also called human CD137 protein (Biacore ligand); not shown: C-terminal 6xHis tag by the name C6His
Put plainly: SPR (Biacore T200), huCD137-C6His immobilised, antibody as analyte, 1:1 model, 25 °C. The method, then:
Flow cells of a CMS sensor chip (GE Healthcare Life Sciences) were activated with freshly mixed 50 mmol/L NHS and 200 mmol/L EDC for 420 seconds (10 μL/min). Then, huCD137-C6His in 10 mmol/L NaAC (pH 5.0) was injected onto the activated flow cell (10 μL/min) with HBS-EP (10 mM HEPES, 150 mM NaCl, 3 mM EDTA and 0.05% P20, pH 7.4) as the running buffer. The remaining active coupling sites were blocked with a 420 second injection of 1 mol/L ethanolamine The measurement was performed under 25° C., and HBS-EP was used as the running buffer. An injection of a tested analyte and surface regeneration of the CMS sensor chip were included in each running cycle. […] Buffer flow was maintained for approximately 180 seconds for dissociation. To remove the tested antibodies, an injection of 10 mM glycine-HCl for approximately 30 seconds was used for regeneration. The above procedures were repeated for each concentration of serially diluted tested antibody. The raw data of the surface plasmon resonance experiments were evaluated using Biacore T200 evaluation software 3.1 with a 1:1 binding model. Flow cell 1 was used as the reference flow cell.

Another assay deals with T5, Ly050.
T5 chain: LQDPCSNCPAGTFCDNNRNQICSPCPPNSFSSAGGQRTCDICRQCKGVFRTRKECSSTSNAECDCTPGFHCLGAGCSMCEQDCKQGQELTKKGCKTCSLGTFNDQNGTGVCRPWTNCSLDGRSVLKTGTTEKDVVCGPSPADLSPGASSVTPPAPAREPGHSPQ
The assay is described as follows: ELISA, clone 3712-IgG1v coated, CD137 protein titrated (EC50 is a concentration of the CD137 protein); full sigmoid, plateau about 2.2. The method, then: (§2) The plate was decanted and washed once; assay diluent was added 200 μL/well. After one-hour incubation at room temperature, the plate was washed with PBST one time. CD137 receptor human/mouse chimeras were diluted in assay diluent to 100 or 10 μg/mL, and then a 4-fold serial dilution in assay diluent for 11 points to final concentrations of 100000, 25000, 6250, 1562.5, 390.63, 97.66, 24.41, 6.10, 1.53, 0.38 and 0.095 ng/mL or 10000, 2500, 625, 156.25, 39.06, 9.77, 2.44, 0.61, 0.15, 0.038 and 0.0095 ng/mL. The diluted CD137 receptor was added to the assay plate, 50 μL/well, in duplicate. The plate was incubated one hour at room temperature and then washed three times with PBST. Goat anti-human IgG-H+L HRP conjugated at 1:100,000 20 dilution was added to the plate at 100 μL/well. The plate was then incubated one hour at room temperature followed by washing with PBST four times. The TMB substrate solution was added at 100 μL/well. The color was allowed to develop for 15 minutes, and was stopped with 100 μL/well 2N H2SO4. Absorbance at 450 nm and 620 nm was determined by a Tecan F200 Pro reader.

The next assay has as its target T6, Ly110.
T6 chain: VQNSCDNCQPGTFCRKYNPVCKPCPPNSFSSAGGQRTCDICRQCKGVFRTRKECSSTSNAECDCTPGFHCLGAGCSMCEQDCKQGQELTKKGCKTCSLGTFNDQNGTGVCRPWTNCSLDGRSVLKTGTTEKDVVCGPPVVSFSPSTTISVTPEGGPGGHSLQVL
Put plainly: ELISA, clone 3712-IgG1v coated, CD137 protein titrated (EC50 is a concentration of the CD137 protein); full sigmoid, plateau about 1.9. How it is done:
as §2

The source of these data is patent US20210246218A1 (LYVGEN BIOPHARMA SUZHOU, published 2021).

T4 sequence (Q07011 24-186): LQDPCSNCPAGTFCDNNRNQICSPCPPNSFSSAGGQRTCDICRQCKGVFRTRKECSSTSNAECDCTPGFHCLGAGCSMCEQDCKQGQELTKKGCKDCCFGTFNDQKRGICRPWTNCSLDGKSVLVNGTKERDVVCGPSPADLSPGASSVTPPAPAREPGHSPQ
T2 sequence (P36941 31-227 limits assumed): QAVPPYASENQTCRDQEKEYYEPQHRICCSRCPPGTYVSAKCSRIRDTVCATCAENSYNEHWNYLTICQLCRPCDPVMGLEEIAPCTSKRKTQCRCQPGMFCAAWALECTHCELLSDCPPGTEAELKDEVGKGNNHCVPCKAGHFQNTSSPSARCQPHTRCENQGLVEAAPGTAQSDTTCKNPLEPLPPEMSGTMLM
T3 sequence (P08637 17-254): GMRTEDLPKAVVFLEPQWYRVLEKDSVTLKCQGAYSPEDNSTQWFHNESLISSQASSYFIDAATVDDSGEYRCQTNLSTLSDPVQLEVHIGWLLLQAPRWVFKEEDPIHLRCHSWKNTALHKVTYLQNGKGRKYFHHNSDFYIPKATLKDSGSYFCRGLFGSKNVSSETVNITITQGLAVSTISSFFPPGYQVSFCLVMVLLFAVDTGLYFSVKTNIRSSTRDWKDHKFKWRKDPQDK
Chain of human CD27 protein (P26842 21-192 limits assumed): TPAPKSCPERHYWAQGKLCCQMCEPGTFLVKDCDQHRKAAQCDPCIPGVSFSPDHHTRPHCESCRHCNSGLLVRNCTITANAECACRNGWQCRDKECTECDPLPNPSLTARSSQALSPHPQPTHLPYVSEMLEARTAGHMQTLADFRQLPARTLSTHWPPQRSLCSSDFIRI
Chain of human PD-1 protein (Q15116 25-167 limits assumed): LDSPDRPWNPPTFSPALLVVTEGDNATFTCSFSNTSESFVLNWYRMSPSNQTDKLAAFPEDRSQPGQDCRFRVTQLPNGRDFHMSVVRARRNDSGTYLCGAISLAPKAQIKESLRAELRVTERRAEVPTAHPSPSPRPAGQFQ

B1: Clone 3712-IgG1v (IgG1v/kappa) (antibody)
heavy: QVQLVQSGAEVKKPGASVKVSCKASGYTFAGFEMHWVRQAPGQGLEWMGAIDPKTGGTDYNQKFKDRVTMTRDTSISTAYMELSRLRSDDTAVYYCARDLGYFDVWGQGTLVTVSSASTKGPSVFPLAPSSKSTSGGTAALGCLVKDYFPEPVTVSWNSGALTSGVHTFPAVLQSSGLYSLSSVVTVPSSSLGTQTYICNVNHKPSNTKVDKKVEPKSCDKTHTCPPCPAPELLGPSVFLFPPKPKDTLMISRTPEVTCVVVDVEHEDPEVKFNWYVDGVEVHNAKTKPREEQYNSTYRVVSVLTVLHQDWLNGKEYKCKVSNKALPAPIEKTISKAKGQPREPQVYTLPPSREEMTKNQVSLTCLVKGFYPSDIAVEWESNGQPENNYKTTPPVLDSDGSFFLYSKLTVDKSRWQQGNVFSCSVMHEALHNHYTQKSLSLSPGK
light: DIQMTQSPSSLSASVGDRVTITCRASQDIRSNLNWYQQKPGGAVKLLIYYTSRLHSGVPSRFSGSGSGTDYTLTISSLQPEDFATYFCQQSEKLPRTFGGGTKVEIRRTVAAPSVFIFPPSDEQLKSGTASVVCLLNNFYPREAKVQWKVDNALQSGNSQESVTEQDSKDSTYSLSSTLTLSKADYEKHKVYACEVTHQGLSSPVTKSFNRGEC
notes: copies: 2 + 2
For B1, the binding result with rat CD137 protein is “no binding (tested: 10 µg/mL and 1 µg/mL)”; with human PD-1 protein it was “no binding (tested: 10 µg/mL and 1 µg/mL)”; with human VISTA protein it was “no binding (tested: 10 µg/mL and 1 µg/mL)”; with human CD27 protein it was “no binding (tested: 10 µg/mL and 1 µg/mL)”; in the assay with human LTBR protein, “no binding (tested: 10 µg/mL and 1 µg/mL)”; in [1], “no binding (tested: 100 µg/mL)”. In the assay with huCD137-C6His, this molecule had a Kd of 18.9 nM. The molecule also came in with a koff with huCD137-C6His of 0.0138 s⁻¹. The same molecule registered a kon in the assay with huCD137-C6His of 730000 M⁻¹ s⁻¹. Besides, the results for the EC50 with Ly050 and with Ly110 were 0.00339 µg/mL and 0.101 µg/mL, respectively.
